Tests used:
Details in all cases: other: dynamic light scattering
[1] = dynamic light scattering; FXN^81-210 with ferric iron (FeCl3 in HEPES pH 7.5), Fe3+:protein 6:1, 8:1, 10:1
[2] = dynamic light scattering; FXN^81-210 with Fe2+ 6:1 for 15 min, then chelator (deferiprone, DFO or BIPY) at 3 times the amount of iron; room temperature
[3] = dynamic light scattering; FXN^81-210 2.5 mg/ml (0.17 mM) with ammonium iron (II) sulfate, aerobic, Fe2+:protein 2:1, 4:1, 5:1, 6:1, 10:1; room temperature; profiles every 5 min for 2 h; volume distribution

Substance: Human frataxin isoform 81–210 (FXN^81-210)
- % of particles in the monomer range (hydrodynamic radius 1.6–3 nm), with iron (Fe3+ 6:1) [1]: 97%
- % of particles with hydrodynamic radius 6–8.5 nm (oligomers), with iron (Fe3+ 8:1) [1]: 84.4%
- % of particles with hydrodynamic radius 8.5–14 nm (oligomers), with iron (Fe3+ 6:1) [1]: 3%
- % of particles with hydrodynamic radius 8.5–14 nm (oligomers), with iron (Fe3+ 10:1) [1]: 86.8%
- % of particles with hydrodynamic radius 15–25 nm (oligomers), with iron (Fe3+ 8:1) [1]: 15.6%
- % of particles in the monomer range (hydrodynamic radius 1.6–2.1 nm), with iron (Fe2+ 6:1) and BIPY [2]: 92%
- % of particles in the monomer range (hydrodynamic radius 1.6–2.1 nm), with iron (Fe2+ 6:1) and deferiprone [2]: 97%
- % of particles with hydrodynamic radius 6–8.5 nm (oligomers), with iron (Fe2+ 6:1) and BIPY [2]: 8%
- % of particles with hydrodynamic radius 6–8.5 nm (oligomers), with iron (Fe2+ 6:1) and DFO [2]: 95%
- % of particles with hydrodynamic radius 8.5–14 nm (oligomers), with iron (Fe2+ 6:1) and deferiprone [2]: 3%
- % of particles with hydrodynamic radius 15–25 nm (oligomers), with iron (Fe2+ 6:1) and DFO [2]: 5%
- % of particles in the monomer range (hydrodynamic radius 1.6–2.1 nm), with iron (Fe2+ 6:1) [3]: 92%
- % of particles with hydrodynamic radius 6–8.5 nm (oligomers), with iron (Fe2+ 6:1) [3]: 8%
- % of particles with mean hydrodynamic radius of about 5 nm (oligomers), with iron (Fe2+ 10:1, 60 min) [3]: The major fraction of the oligomers (88%)

From publication PMC5714350
